Patent US20240269235A1 (Gilead, published 2024)

How the values were obtained:
[1] = target: T1, trimeric murine IL-2 receptor (IL-2Rα, IL-2Rβ, and IL-2Rγ) on CTLL-2 cells (murine, UniProt P01590 22-268; P16297 27-539; P34902 23-369); test: cell-based or functional assay
T1 sequence (looked up) 1: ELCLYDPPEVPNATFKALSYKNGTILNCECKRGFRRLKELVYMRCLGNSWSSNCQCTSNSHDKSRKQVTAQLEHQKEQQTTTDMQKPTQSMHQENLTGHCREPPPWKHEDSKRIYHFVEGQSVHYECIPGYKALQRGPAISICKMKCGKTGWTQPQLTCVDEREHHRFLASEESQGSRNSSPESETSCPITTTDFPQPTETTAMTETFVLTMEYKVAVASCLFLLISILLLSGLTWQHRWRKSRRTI
T1 sequence (looked up) 2: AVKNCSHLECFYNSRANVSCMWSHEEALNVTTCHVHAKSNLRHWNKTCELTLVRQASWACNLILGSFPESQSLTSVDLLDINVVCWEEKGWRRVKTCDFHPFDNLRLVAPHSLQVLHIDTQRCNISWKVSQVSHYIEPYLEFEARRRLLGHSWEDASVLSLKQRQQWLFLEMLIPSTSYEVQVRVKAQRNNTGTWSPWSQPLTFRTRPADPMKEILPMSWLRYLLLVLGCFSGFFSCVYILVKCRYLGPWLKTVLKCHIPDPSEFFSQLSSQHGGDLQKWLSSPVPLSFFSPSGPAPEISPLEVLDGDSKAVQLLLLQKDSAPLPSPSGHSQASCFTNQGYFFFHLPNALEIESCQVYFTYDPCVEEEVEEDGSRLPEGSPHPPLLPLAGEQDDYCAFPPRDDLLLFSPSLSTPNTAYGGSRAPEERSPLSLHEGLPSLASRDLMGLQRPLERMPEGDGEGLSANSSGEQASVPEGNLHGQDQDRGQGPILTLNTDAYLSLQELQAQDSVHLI
T1 sequence (looked up) 3: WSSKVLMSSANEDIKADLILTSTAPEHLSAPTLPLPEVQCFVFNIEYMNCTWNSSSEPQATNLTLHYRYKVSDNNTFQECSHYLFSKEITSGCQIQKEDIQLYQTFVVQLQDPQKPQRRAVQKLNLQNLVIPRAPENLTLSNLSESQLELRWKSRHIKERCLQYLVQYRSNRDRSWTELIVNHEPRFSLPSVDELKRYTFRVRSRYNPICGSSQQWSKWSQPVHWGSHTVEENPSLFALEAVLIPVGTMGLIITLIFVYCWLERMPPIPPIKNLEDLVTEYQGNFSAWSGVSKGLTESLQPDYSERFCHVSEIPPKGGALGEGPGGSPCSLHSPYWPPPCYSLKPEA

[2] = target: T2, IL-2Rβγ heterodimer, custom biotinylated Fc fusion protein (human IL-2Rβ 27-240-Fc-FLAG / human IL-2Rγ … (human, site-specific biotinylation at the AviTag)); test: SPR (Biacore), CM4 chip, biotinylated receptor on neutravidin
T2 construct: Extracellular regions fused to IgG1 knob-in-hole Fc subunits with tags; also called IL-2 receptor βγ heterodimer; Fc-IL-2Rβγ
T2 sequence (chain, as listed by the source limits assumed): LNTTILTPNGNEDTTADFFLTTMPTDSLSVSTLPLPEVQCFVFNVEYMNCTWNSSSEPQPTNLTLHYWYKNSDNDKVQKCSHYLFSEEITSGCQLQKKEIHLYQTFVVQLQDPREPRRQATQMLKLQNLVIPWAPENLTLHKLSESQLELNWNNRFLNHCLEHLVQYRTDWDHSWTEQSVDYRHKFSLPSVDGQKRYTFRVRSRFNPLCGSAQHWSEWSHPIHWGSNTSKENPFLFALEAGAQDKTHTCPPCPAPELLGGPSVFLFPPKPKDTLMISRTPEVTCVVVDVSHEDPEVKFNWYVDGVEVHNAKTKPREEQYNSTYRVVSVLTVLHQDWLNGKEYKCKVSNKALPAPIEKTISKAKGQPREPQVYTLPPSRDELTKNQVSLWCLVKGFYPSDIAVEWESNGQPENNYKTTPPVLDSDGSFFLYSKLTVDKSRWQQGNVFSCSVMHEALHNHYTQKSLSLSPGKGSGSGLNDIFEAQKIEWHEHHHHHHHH
Protocol: Fc-IL-2 variant binding data was collected on a Biacore platform using a CM4 chip. Neutravidin was immobilized using standard amine coupling methods and used to capture biotinylated receptors. The source, preparation and immobilization of biotinylated IL-2Rα and IL-2Rβγ heterodimer was as described in Example 4. Proleukin was used as a comparator. Fc-IL-2 variants and Proleukin were injected at various concentrations over these surfaces. Kinetic data obtained from these injections was used to extract kₒₙ and koff to calculate KD (KD=Koff/kₒₙ).

B1: Fc-IL-2v heterodimer 97.46 (hIL-2v_Δ1-5_Y45G_E62A_C125S) (Fc fusion)
chain 1: ESKYGPPCPPCPAPEAAGGPSVFLFPPKPKDTLMISRTPEVTCVVVDVSQEDPEVQFNWYVDGVEVHNAKTKPREEQFNSTYRVVSVLTVLHQDWLNGKEYKCKVSNKGLPSSIEKTISKAKGQPREPQVYTLPPSQEEMTKNQVSLWCLVKGFYPSDIAVEWESNGQPENNYKTTPPVLDSDGSFFLYSRLTVDKSRWQEGNVFSCSVMHEALHNHYTQKSLSLSLGGGGGSGGGGSGGGGSGGGGSSTKKTQLQLEHLLLDLQMILNGINNYKNPKLTRMLTFKFGMPKKATELKHLQCLEEALKPLEEVLNLAQSKNFHLRPRDLISNINVIVLELKGSETTFMCEYADETATIVEFLNRWITFSQSIISTLT
chain 2: ESKYGPPCPPCPAPEAAGGPSVFLFPPKPKDTLMISRTPEVTCVVVDVSQEDPEVQFNWYVDGVEVHNAKTKPREEQFNSTYRVVSVLTVLHQDWLNGKEYKCKVSNKGLPSSIEKTISKAKGQPREPQVYTLPPSQEEMTKNQVSLSCAVKGFYPSDIAVEWESNGQPENNYKTTPPVLDSDGSFFLVSRLTVDKSRWQEGNVFSCSVMHEALHNRFTQKSLSLSLGK
notes: hIgG4 knob-in-hole Fc heterodimer, one IL-2v on the knob chain
STAT5 activation of CTLL-2 cells, EC50 [1]: 3.4 nM | Kd [2]: 0.065 nM

B2: Fc-IL-2v heterodimer 100.46 (hIL-2v_Δ1-5_F42A_E61A_C125S) (Fc fusion)
chain 1: ESKYGPPCPPCPAPEAAGGPSVFLFPPKPKDTLMISRTPEVTCVVVDVSQEDPEVQFNWYVDGVEVHNAKTKPREEQFNSTYRVVSVLTVLHQDWLNGKEYKCKVSNKGLPSSIEKTISKAKGQPREPQVYTLPPSQEEMTKNQVSLWCLVKGFYPSDIAVEWESNGQPENNYKTTPPVLDSDGSFFLYSRLTVDKSRWQEGNVFSCSVMHEALHNHYTQKSLSLSLGGGGGSGGGGSGGGGSGGGGSSTKKTQLQLEHLLLDLQMILNGINNYKNPKLTRMLTAKFYMPKKATELKHLQCLEAELKPLEEVLNLAQSKNFHLRPRDLISNINVIVLELKGSETTFMCEYADETATIVEFLNRWITFSQSIISTLT
chain 2: ESKYGPPCPPCPAPEAAGGPSVFLFPPKPKDTLMISRTPEVTCVVVDVSQEDPEVQFNWYVDGVEVHNAKTKPREEQFNSTYRVVSVLTVLHQDWLNGKEYKCKVSNKGLPSSIEKTISKAKGQPREPQVYTLPPSQEEMTKNQVSLSCAVKGFYPSDIAVEWESNGQPENNYKTTPPVLDSDGSFFLVSRLTVDKSRWQEGNVFSCSVMHEALHNRFTQKSLSLSLGK
notes: as for B1
STAT5 activation of CTLL-2 cells, EC50 [1]: 1.6 nM | Kd [2]: 0.061 nM

B3: Fc-IL-2v heterodimer 103.46 (hIL-2v_Δ1-5_E61A_E62A_C125S) (Fc fusion)
chain 1: ESKYGPPCPPCPAPEAAGGPSVFLFPPKPKDTLMISRTPEVTCVVVDVSQEDPEVQFNWYVDGVEVHNAKTKPREEQFNSTYRVVSVLTVLHQDWLNGKEYKCKVSNKGLPSSIEKTISKAKGQPREPQVYTLPPSQEEMTKNQVSLWCLVKGFYPSDIAVEWESNGQPENNYKTTPPVLDSDGSFFLYSRLTVDKSRWQEGNVFSCSVMHEALHNHYTQKSLSLSLGGGGGSGGGGSGGGGSGGGGSSTKKTQLQLEHLLLDLQMILNGINNYKNPKLTRMLTFKFYMPKKATELKHLQCLEAALKPLEEVLNLAQSKNFHLRPRDLISNINVIVLELKGSETTFMCEYADETATIVEFLNRWITFSQSIISTLT
chain 2: ESKYGPPCPPCPAPEAAGGPSVFLFPPKPKDTLMISRTPEVTCVVVDVSQEDPEVQFNWYVDGVEVHNAKTKPREEQFNSTYRVVSVLTVLHQDWLNGKEYKCKVSNKGLPSSIEKTISKAKGQPREPQVYTLPPSQEEMTKNQVSLSCAVKGFYPSDIAVEWESNGQPENNYKTTPPVLDSDGSFFLVSRLTVDKSRWQEGNVFSCSVMHEALHNRFTQKSLSLSLGK
notes: as for B1
STAT5 activation of CTLL-2 cells, EC50 [1]: 2.7 nM | Kd [2]: 0.096 nM

B4: Fc-IL-2v heterodimer 102.46 (hIL-2v_Δ1-5_Y45G_E61A_E62A_C125S) (Fc fusion)
chain 1: ESKYGPPCPPCPAPEAAGGPSVFLFPPKPKDTLMISRTPEVTCVVVDVSQEDPEVQFNWYVDGVEVHNAKTKPREEQFNSTYRVVSVLTVLHQDWLNGKEYKCKVSNKGLPSSIEKTISKAKGQPREPQVYTLPPSQEEMTKNQVSLWCLVKGFYPSDIAVEWESNGQPENNYKTTPPVLDSDGSFFLYSRLTVDKSRWQEGNVFSCSVMHEALHNHYTQKSLSLSLGGGGGSGGGGSGGGGSGGGGSSTKKTQLQLEHLLLDLQMILNGINNYKNPKLTRMLTFKFGMPKKATELKHLQCLEAALKPLEEVLNLAQSKNFHLRPRDLISNINVIVLELKGSETTFMCEYADETATIVEFLNRWITFSQSIISTLT
chain 2: ESKYGPPCPPCPAPEAAGGPSVFLFPPKPKDTLMISRTPEVTCVVVDVSQEDPEVQFNWYVDGVEVHNAKTKPREEQFNSTYRVVSVLTVLHQDWLNGKEYKCKVSNKGLPSSIEKTISKAKGQPREPQVYTLPPSQEEMTKNQVSLSCAVKGFYPSDIAVEWESNGQPENNYKTTPPVLDSDGSFFLVSRLTVDKSRWQEGNVFSCSVMHEALHNRFTQKSLSLSLGK
notes: as for B1
STAT5 activation of CTLL-2 cells, EC50 [1]: 6.1 nM | Kd [2]: 0.073 nM

B5: Fc-IL-2v heterodimer 104.46 (hIL-2v_Δ1-5_R38G_F42A_C125S) (Fc fusion)
chain 1: ESKYGPPCPPCPAPEAAGGPSVFLFPPKPKDTLMISRTPEVTCVVVDVSQEDPEVQFNWYVDGVEVHNAKTKPREEQFNSTYRVVSVLTVLHQDWLNGKEYKCKVSNKGLPSSIEKTISKAKGQPREPQVYTLPPSQEEMTKNQVSLWCLVKGFYPSDIAVEWESNGQPENNYKTTPPVLDSDGSFFLYSRLTVDKSRWQEGNVFSCSVMHEALHNHYTQKSLSLSLGGGGGSGGGGSGGGGSGGGGSSTKKTQLQLEHLLLDLQMILNGINNYKNPKLTGMLTAKFYMPKKATELKHLQCLEEELKPLEEVLNLAQSKNFHLRPRDLISNINVIVLELKGSETTFMCEYADETATIVEFLNRWITFSQSIISTLT
chain 2: ESKYGPPCPPCPAPEAAGGPSVFLFPPKPKDTLMISRTPEVTCVVVDVSQEDPEVQFNWYVDGVEVHNAKTKPREEQFNSTYRVVSVLTVLHQDWLNGKEYKCKVSNKGLPSSIEKTISKAKGQPREPQVYTLPPSQEEMTKNQVSLSCAVKGFYPSDIAVEWESNGQPENNYKTTPPVLDSDGSFFLVSRLTVDKSRWQEGNVFSCSVMHEALHNRFTQKSLSLSLGK
notes: as for B1
STAT5 activation of CTLL-2 cells, EC50 [1]: 1.4 nM | Kd [2]: 0.061 nM

B6: Fc-IL-2v heterodimer 106.46 (hIL-2v_Δ1-5_R38G_F42A_Y45G_C125S) (Fc fusion)
chain 1: ESKYGPPCPPCPAPEAAGGPSVFLFPPKPKDTLMISRTPEVTCVVVDVSQEDPEVQFNWYVDGVEVHNAKTKPREEQFNSTYRVVSVLTVLHQDWLNGKEYKCKVSNKGLPSSIEKTISKAKGQPREPQVYTLPPSQEEMTKNQVSLWCLVKGFYPSDIAVEWESNGQPENNYKTTPPVLDSDGSFFLYSRLTVDKSRWQEGNVFSCSVMHEALHNHYTQKSLSLSLGGGGGSGGGGSGGGGSGGGGSSTKKTQLQLEHLLLDLQMILNGINNYKNPKLTGMLTAKFGMPKKATELKHLQCLEEELKPLEEVLNLAQSKNFHLRPRDLISNINVIVLELKGSETTFMCEYADETATIVEFLNRWITFSQSIISTLT
chain 2: ESKYGPPCPPCPAPEAAGGPSVFLFPPKPKDTLMISRTPEVTCVVVDVSQEDPEVQFNWYVDGVEVHNAKTKPREEQFNSTYRVVSVLTVLHQDWLNGKEYKCKVSNKGLPSSIEKTISKAKGQPREPQVYTLPPSQEEMTKNQVSLSCAVKGFYPSDIAVEWESNGQPENNYKTTPPVLDSDGSFFLVSRLTVDKSRWQEGNVFSCSVMHEALHNRFTQKSLSLSLGK
notes: as for B1
STAT5 activation of CTLL-2 cells, EC50 [1]: 19.6 nM | Kd [2]: 0.06 nM

B7: Fc-IL-2v heterodimer 101.46 (hIL-2v_Δ1-5_F42A_Y45G_C125S) (Fc fusion)
chain 1: ESKYGPPCPPCPAPEAAGGPSVFLFPPKPKDTLMISRTPEVTCVVVDVSQEDPEVQFNWYVDGVEVHNAKTKPREEQFNSTYRVVSVLTVLHQDWLNGKEYKCKVSNKGLPSSIEKTISKAKGQPREPQVYTLPPSQEEMTKNQVSLWCLVKGFYPSDIAVEWESNGQPENNYKTTPPVLDSDGSFFLYSRLTVDKSRWQEGNVFSCSVMHEALHNHYTQKSLSLSLGGGGGSGGGGSGGGGSGGGGSSTKKTQLQLEHLLLDLQMILNGINNYKNPKLTRMLTAKFGMPKKATELKHLQCLEEELKPLEEVLNLAQSKNFHLRPRDLISNINVIVLELKGSETTFMCEYADETATIVEFLNRWITFSQSIISTLT
chain 2: ESKYGPPCPPCPAPEAAGGPSVFLFPPKPKDTLMISRTPEVTCVVVDVSQEDPEVQFNWYVDGVEVHNAKTKPREEQFNSTYRVVSVLTVLHQDWLNGKEYKCKVSNKGLPSSIEKTISKAKGQPREPQVYTLPPSQEEMTKNQVSLSCAVKGFYPSDIAVEWESNGQPENNYKTTPPVLDSDGSFFLVSRLTVDKSRWQEGNVFSCSVMHEALHNRFTQKSLSLSLGK
notes: as for B1
STAT5 activation of CTLL-2 cells, EC50 [1]: 7.7 nM | Kd [2]: 0.054 nM
